B2: C. elegans SUR-8 fused to the GAL4 activation domain (other, not shown: large carriers)
chain: METSKEFEFRPAKETSRSKSPGGIVGRLSNFARNKARHSLSEKGSNSVGGSGGAGFDKPRKDLLKEFHKCKEAQDQRLDLSSIEITSIPSPIKELTQLTELFLYKNKLTCLPTEIGQLVNLKKLGLSENALTSLPDSLASLESLETLDLRHNKLTEVPSVIYKIGSLETLWLRYNRIVAVDEQIGNLSKLKMLDVRENKIRELPSAIGKLTSLVVCLVSYNHLTRVPEEIGDCHSLTQLDLQHNDLSELPYSIGKLVNLVRIGIRYNKIRCIPSELESCQQLEEFIVESNHLQLLPPNLLTMLPKIHTVNLSRNELTAFPAGGPQQFVSTVTINMEHNQISKIPIGIFSKATRLTKLNLKENELVSLPLDMGSWTSITELNLSTNQLKVLPEDIEKLVNLEILVLSNNQLKKLPNQIGNLNKLRELDLEENELETVPTEIGFLQHLTKLWVQSNKILTLPRSIGNLCSLQDLRLGENNLTAIPEEIGHLDSLKSLYLNDNSSLHNLPFELALCQSLEIMSIENSPLSQIPPEITAGGPSLVIQYLKMQGPYRGVVMNSQ
notes: Yeast two-hybrid construct: 1.7 kb sur-8 cDNA cloned in-frame into pACT2; also called Ce SUR-8; wild-type SUR-8

Assays:
[1] = target: T1, C. elegans SUR-8 deletion mutant lacking the N-terminal 88 amino acid non-LRR region (C. elegans, UniProt Q22875 89-559); assay: yeast two-hybrid
T1 construct: Range 89-559 is worked out from 'deletion of the N-terminal 88 amino acid' and the printed length of 559
T1 sequence: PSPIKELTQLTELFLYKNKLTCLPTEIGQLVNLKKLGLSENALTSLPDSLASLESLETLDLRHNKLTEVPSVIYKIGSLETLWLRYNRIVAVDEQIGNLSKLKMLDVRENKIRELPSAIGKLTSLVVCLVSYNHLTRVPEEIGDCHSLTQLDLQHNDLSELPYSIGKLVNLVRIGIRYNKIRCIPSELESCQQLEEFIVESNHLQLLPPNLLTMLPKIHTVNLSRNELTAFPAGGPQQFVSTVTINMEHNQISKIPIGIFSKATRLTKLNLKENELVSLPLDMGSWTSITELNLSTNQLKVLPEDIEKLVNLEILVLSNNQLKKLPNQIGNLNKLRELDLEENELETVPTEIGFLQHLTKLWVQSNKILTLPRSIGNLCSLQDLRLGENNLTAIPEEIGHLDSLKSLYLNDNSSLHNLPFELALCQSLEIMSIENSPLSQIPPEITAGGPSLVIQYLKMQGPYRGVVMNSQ

[2] = target: T2, C. elegans SUR-8 ku242 C233Y (yeast two-hybrid fusion) (C. elegans, UniProt Q22875 1-559); assay: yeast two-hybrid
T2 sequence: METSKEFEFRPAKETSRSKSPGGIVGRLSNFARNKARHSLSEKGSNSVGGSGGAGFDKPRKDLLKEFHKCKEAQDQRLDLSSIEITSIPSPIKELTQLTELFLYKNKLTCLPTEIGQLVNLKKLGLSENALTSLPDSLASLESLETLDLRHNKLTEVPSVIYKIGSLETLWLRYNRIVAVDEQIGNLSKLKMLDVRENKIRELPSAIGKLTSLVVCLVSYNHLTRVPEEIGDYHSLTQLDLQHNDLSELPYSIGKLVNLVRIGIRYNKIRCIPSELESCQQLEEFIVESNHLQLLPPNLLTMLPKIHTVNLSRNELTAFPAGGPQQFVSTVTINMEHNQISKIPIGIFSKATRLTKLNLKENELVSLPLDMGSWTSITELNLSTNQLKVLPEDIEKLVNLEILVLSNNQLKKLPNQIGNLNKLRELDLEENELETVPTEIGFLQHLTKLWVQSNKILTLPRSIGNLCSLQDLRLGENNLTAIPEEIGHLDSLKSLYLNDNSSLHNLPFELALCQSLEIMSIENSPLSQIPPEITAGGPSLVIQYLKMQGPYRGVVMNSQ

[3] = target: T3, wild type LIN-45 Raf (yeast two-hybrid fusion) (C. elegans, UniProt Q07292 1-813); assay: yeast two-hybrid
T3 construct: Tested against SUR-8 and against LET-60 Ras and its mutants; The constructs for the two tests may differ; not shown: two-hybrid fusion partner
T3 sequence (looked up): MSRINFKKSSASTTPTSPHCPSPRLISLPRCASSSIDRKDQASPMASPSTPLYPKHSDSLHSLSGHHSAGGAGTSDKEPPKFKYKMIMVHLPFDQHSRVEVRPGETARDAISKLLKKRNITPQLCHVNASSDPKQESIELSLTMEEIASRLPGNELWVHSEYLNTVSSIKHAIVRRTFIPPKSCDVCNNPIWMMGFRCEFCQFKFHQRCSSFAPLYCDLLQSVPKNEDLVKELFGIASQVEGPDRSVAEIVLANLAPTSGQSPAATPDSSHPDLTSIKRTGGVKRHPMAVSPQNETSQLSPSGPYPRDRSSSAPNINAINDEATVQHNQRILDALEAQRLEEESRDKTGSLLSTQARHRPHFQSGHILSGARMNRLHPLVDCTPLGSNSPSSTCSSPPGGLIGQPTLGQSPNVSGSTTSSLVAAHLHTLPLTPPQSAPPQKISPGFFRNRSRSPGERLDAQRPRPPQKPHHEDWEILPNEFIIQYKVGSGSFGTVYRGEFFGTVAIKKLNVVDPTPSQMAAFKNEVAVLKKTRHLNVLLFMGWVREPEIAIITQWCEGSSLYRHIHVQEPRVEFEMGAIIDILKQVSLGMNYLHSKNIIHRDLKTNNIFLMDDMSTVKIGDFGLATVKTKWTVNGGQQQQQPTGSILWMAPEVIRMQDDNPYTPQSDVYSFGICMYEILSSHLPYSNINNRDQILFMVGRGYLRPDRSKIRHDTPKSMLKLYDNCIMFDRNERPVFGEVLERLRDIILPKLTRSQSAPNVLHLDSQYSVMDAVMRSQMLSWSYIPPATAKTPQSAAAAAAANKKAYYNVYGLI

[4] = target: B2; assay: yeast two-hybrid, His and LacZ reporters

B1: wild type LET-60 Ras fused to the GAL4 DNA binding domain (enzyme, UniProt P04386 1-147, looked up)
chain: MKLLSSIEQACDICRLKKLKCSKEKPKCAKCLKNNWECRYSPKTKRSPLTRAHLTEVESRLERLEQLFLLIFPREDLDMILKMDSLQDIKALLTGLFVQDNVNKDAVTDRLASVETDMPLTLRQHRISATSSSEESSNKGQRQLTVSMTEYKLVVVGDGGVGKSALTIQLIQNHFVEEYDPTIEDSYRKQVVIDGETCLLDILDTAGQEEYSAMRDQYMRTGEGFLLVFAVNEAKSFENVANYREQIRRVKDSDDVPMVLVGNKCDLSSRSVDFRTVSETAKGYGIPNVDTSAKTRMGVDEAFYTLVREIRKHRERHDNNKPQKKKKCQIM
B1: no binding [1]; no binding [2].

B2: no binding [3].

B3: MEK-2 MEK (yeast two-hybrid fusion) (enzyme, C. elegans, UniProt Q10664 1-387, looked up)
chain: MSSGKRRNPLGLSLPPTVNEQSESGEATAEEATATVPLEEQLKKLGLTEPQTQRLSEFLQVKEGIKELSEDMLQTEGELGHGNGGVVNKCVHRKTGVIMARKLVHLEIKPSVRQQIVKELAVLHKCNSPFIVGFYGAFVDNNDISICMEYMDGLSLDIVLKKVGRLPEKFVGRISVAVVRGLTYLKDEIKILHRDVKPSNMLVNSNGEIKLCDFGVSGMLIDSMANSFVGTRSYMAPERLTGSHYTISSDIWSFGLSLVELLIGRYPVPAPSQAEYATMFNVAENEIELADSLEEPNYHPPSNPASMAIFEMLDYIVNGPPPTLPKRFFTDEVIGFVSKCLRKLPSERATLKSLTADVFFTQYADHDDQGEFAVFVKGTINLPKLNP
notes: not shown: two-hybrid fusion partner
B3: no binding [4].

B4: MPK-1 MAP kinase (yeast two-hybrid fusion) (enzyme, C. elegans, UniProt P39745-2 1-376, looked up)
chain: MADGEAVISTVNNVEEVHGQLFEVAPRYVNLSYIGEGAYGMVASALDTITRDRVAIKKISPFEHQTFCQRTLREIKILNRFKHENIINIQEIIRSETVDSLKDIYIVQCLMETDLYKLLKTQKLSNDHVCYFLYQILRGLKYIHSANVLHRDLKPSNLLLNTTCDLKICDFGLARVTDPQTDHTGFLTEYVATRWYRAPEIMLNSKGYTKSIDVWSVGCILAEMLSNRPLFPGKHYLDQLNLILAVVGSPSNADLQCIINDKARSYLISLPHKPKQPWARLYPGADPRALDLLDKMLTFNPHNRIDIEQALAHPYLEQYYDPGDEPVCEEPFTLEMEFDDLPKEKLKELIWEEAEAHHRRMEAEAAARNNGGQNPV
notes: as for B3
B4: no binding [4].
